# Laboratory results: patent US20020009436A1, “Methods and compositions for inhibiting adhesion by microorganisms” (priority 1999, published 2002)
# B1: asparaginase: enzyme that catalyzes hydrolysis of the side chain amide group of asparagine to a carboxyl group; E. coli asparaginase (protein, UniProt P00805 23-348, looked up)
# L-asparaginase 2: LPNITILATGGTIAGGGDSATKSNYTVGKVGVENLVNAVPQLKDIANVKGEQVVNIGSQDMNDNVWLTLAKKINTDCDKTDGFVITHGTDTMEETAYFLDLTVKCDKPVVMVGAMRPSTSMSADGPFNLYNAVVTAADKASANRGVLVVMNDTVLDGRDVTKTNTTDVATFKSVNYGPLGYIHNGKIDYQRTPARKHTSDTPFDVSKLNELPKVGIVYNYANASDLPAKALVDAGYDGIVSAGVGNGNLYKSVFDTLATAAKTGTAVVRSSRVPTGATTQDAEVDDAKYGFVASGTLNPQKARVLLQLALTQTKDPQQIQQIFNQY
# Experiments:
# [1] = test system: F. nucleatum (adhesin) / A. actinomycetemcomitans (receptor); experiment: Coaggregation F. nucleatum / A. actinomycetemcomitans; conditions: polyphenol oxidase 90 U/ml, asparaginase 20 U/ml
# Procedure: S. sanguis 10556, A. naeslundii strains 12104 and T14V and E. coli were grown static cultures in Todd-Hewitt broth (BBL Microbiology Systems, Cockeysville, Md.). P. gingivalis W50, A. actinomycetemcomitans and C. ochracea were grown in brain heart infusion broth (BBL). F. nucleatum 22586 and P. intermedia 25611 were grown in modified Schaedler broth (BBL). All oral species except S. sanguis 10556 were incubated at 37° C. as static cultures under an anaerobic atmosphere containing H2, CO2 and N2(10:10:80) with GasPaks (BBL). S. sanguis was incubated at 37° C. as static cultures in 5% CO2.
# Bacteria were harvested in the mid to late exponential growth phase by centrifugation (10,000×g for 10 min at 4° C.). The cells were washed twice in coaggregation buffer (30 mM 3-[N-morpholino]propanesulfonic acid (MOPS), pH 7.0) and adjusted to an optical density of 0.6-0.8 at 540 nm (1-cm path). […]
# Coaggregation was assessed by turbidity changes. Following mixing of the cells for 10 s on a Vortex mixer, absorbance readings were made every 30 min. The percentage of coaggregation was calculated from the following formula: Percent coaggregation=[OD540(A)+OD540(B)−OD540(A+B)]/(OD540(A)+OD540(B)), where A is the control containing cells of one strain, B is the control containing cells of the other strain, and A+B is the reaction mixture containing both cells. […]
# [2] = test system: P. gingivalis; experiment: Hemagglutination assay of periodontopathogens, P. gingivalis; format: cell-based, Porphyromonas gingivalis; design: key: + Hemagglutination; − No hemagglutination; conditions: sheep blood, polyphenol oxidase 90 U/ml or asparaginase 20 U/ml, 90 min
# Procedure: (§1) The hemagglutinations were carried out in 96 microwell (Nunc) plates in which 50 μl of 1% suspension of sheep blood and 50 μl of serially diluted cells suspension in phosphate buffered (10 mM Na2HPO4, 10 mM KH2PO4, 150 mM NaCl, 3 mM KCl) were added. The cells were adjusted at 1.4 OD at 540 nm. All the strains were treated in NaCl-free buffer with polyphenol oxidase (90 U/ml) or asparaginase (20 U/ml) for 90 min at 37° C. before hemagglutination.
# [3] = test system: S. pyogenes
# [4] = test system: F. nucleatum; experiment: Hemagglutination assay of periodontopathogens, F. nucleatum; format: cell-based, Fusobacterium nucleatum; design: key: + Hemagglutination; − No hemagglutination; conditions: sheep blood, polyphenol oxidase 90 U/ml or asparaginase 20 U/ml, 90 min
# Procedure: as §1
# [5] = test system: S. epidermidis (clinical isolate); experiment: Fibronectin binding assay, S. epidermidis; format: cell-based; conditions: polyphenol oxidase 80 U/ml, asparaginase 20 U/ml, untreated 0.17
# Procedure: (§2) Wells were filled with human serum fibronectin (50 μg/ml) diluted in carbonate buffer (50 mM Na2CO3—NaHCO3, pH 9.5 overnight). Controls were coated with 1% BSA. The wells were washed three times with PBS and incubated with PBS-Tween (0.5% Tween 20 and 0.05% NaN3) 1 h at 37° C. After attachment, the wells were washed three times with PBS-Tween and allowed to dry. Subsequent assays were as described hereinabove.
# [6] = test system: "trypsin-like" protease activity of P. gingivalis; experiment: Trypsin-like protease activity of P. gingivalis cells (BAPNA); format: cell-based; conditions: asparaginase 20 U/ml, polyphenol oxidase 80 U/ml
# Procedure: Cell suspensions of P. gingivalis were adjusted up to 1.3 OD at 540 nm in PB. A 100 μl volume of 700 μg/ml BAPNA (benzoyl-DL-arginine-p-nitroanilide) was added to 3 ml of cell suspension. The cells were incubated at 37° C. for different periods of time. The blank contained BAPNA and buffer in the same proportion as P. gingivalis cell suspension. Tubes were centrifuged and the subsequent supernatant was diluted 1:3 and read at 405 nm. Asparaginase and polyphenol oxidase were 20 and 80 U/ml, respectively.
# [7] = test system: S. aureus; experiment: Fibronectin binding assay, S. aureus; format: cell-based; conditions: polyphenol oxidase 80 U/ml, asparaginase 20 U/ml
# Procedure: as §2
# [8] = test system: Salmonella enteritidis; experiment: Hemagglutination of horse red blood cells by Salmonella enteritidis; format: cell-based; design: key: + Hemagglutination; − No hemagglutination; conditions: 2 hr incubation, polyphenol oxidase 70 U/ml, asparaginase 65 U/ml
# Procedure: Three Salmonella enteritidis clinical isolate strains, SE 79, SE 89-8312 and SE S1-072-Z were used. The bacterial strains were grown statically in brain heart infusion (BHI) broth for 48 h at 37° C. The cells were harvested by centrifugation and washed twice in 10 mM phosphate buffer (PB) pH 7.5. The final bacterial pellet was then suspended in the same buffer to the desired density.
# Bacterial suspensions OD 1.0 (5 ml each) were mixed in the absence and presence of polyphenol oxidase (70 U/ml) or asparaginase (65 U/ml) and incubated statically at 37° C. for 2 h. The cells were then centrifuged and washed 2 times with PB (pH 7.5) and were suspended at a final volume 125 μl. These cells were subjected to hemagglutination tests.
# For hemagglutination studies, red blood cells from horse were used. The red blood cells were washed with PBS (pH 7.5) by low speed centrifugation 10 min and suspended to 2% in the same buffer.
molecule,measurement,setting,value
B1,Inhibition % of coaggregation,[1]; A. actinomycetemcomitans (receptor) enzyme treated,40%
same,Inhibition % of coaggregation,[1]; F. nucleatum (adhesin) enzyme treated,23%
same,Hemagglutination,[2]; dilution 1/2,−
same,Hemagglutination,[2]; dilution 1/8,−
same,Hemagglutination,[2]; dilution 1/16,−
same,Hemagglutination,[2]; dilution 1/32,−
same,Hemagglutination,[2]; dilution 1/64,−
same,Hemagglutination,[2]; dilution 1/128,−
same,Hemagglutination,[2]; dilution 1/256,−
same,Hemagglutination,[2]; dilution 1/512,−
same,inhibition of growth of S. pyogenes,[3],did not significantly inhibit growth
same,Hemagglutination,[4]; dilution 1/2,+
same,Hemagglutination,[4]; dilution 1/8,+
same,Hemagglutination,[4]; dilution 1/16,+
same,Hemagglutination,[4]; dilution 1/32,+
same,Hemagglutination,[4]; dilution 1/64,+
same,Hemagglutination,[4]; dilution 1/128,−
same,Hemagglutination,[4]; dilution 1/256,−
same,Hemagglutination,[4]; dilution 1/512,−
same,Absorbance (fibronectin),[5],0.16
same,trypsin-like activity (BAPNA hydrolysis),[6],diminished
same,Absorbance (fibronectin),"[7]; S. aureus Cowan, untreated 0.33",0.18
same,Absorbance (fibronectin),"[7]; S. aureus Wood, untreated 0.42",0.35
same,Hemagglutination,"[8]; SE 79, dilution 1/1",+
same,Hemagglutination,"[8]; SE 79, dilution 1/2",−
same,Hemagglutination,"[8]; SE 79, dilution 1/4",−
same,Hemagglutination,"[8]; SE 79, dilution 1/8",−
same,Hemagglutination,"[8]; SE 79, dilution 1/16",−
same,Hemagglutination,"[8]; SE 79, dilution 1/32",−
same,Hemagglutination,"[8]; SE 79, dilution 1/64",−
same,Hemagglutination,"[8]; SE 79, dilution 1/128",−
same,Hemagglutination,"[8]; SE 89-8312, dilution 1/1",−
same,Hemagglutination,"[8]; SE 89-8312, dilution 1/2",−
same,Hemagglutination,"[8]; SE 89-8312, dilution 1/4",−
same,Hemagglutination,"[8]; SE 89-8312, dilution 1/8",−
same,Hemagglutination,"[8]; SE 89-8312, dilution 1/16",−
same,Hemagglutination,"[8]; SE 89-8312, dilution 1/32",−
same,Hemagglutination,"[8]; SE 89-8312, dilution 1/64",−
same,Hemagglutination,"[8]; SE 89-8312, dilution 1/128",−
same,Hemagglutination,"[8]; SES1-0072-Z, dilution 1/1",+
same,Hemagglutination,"[8]; SES1-0072-Z, dilution 1/2",−
same,Hemagglutination,"[8]; SES1-0072-Z, dilution 1/4",−
same,Hemagglutination,"[8]; SES1-0072-Z, dilution 1/8",−
same,Hemagglutination,"[8]; SES1-0072-Z, dilution 1/16",−
same,Hemagglutination,"[8]; SES1-0072-Z, dilution 1/32",−
same,Hemagglutination,"[8]; SES1-0072-Z, dilution 1/64",−
same,Hemagglutination,"[8]; SES1-0072-Z, dilution 1/128",−
